The target of series [1] is T1, HisZea (Lmo2686) (Listeria monocytogenes EGD-e) (UniProt Q8Y3Z3).
T1 sequence: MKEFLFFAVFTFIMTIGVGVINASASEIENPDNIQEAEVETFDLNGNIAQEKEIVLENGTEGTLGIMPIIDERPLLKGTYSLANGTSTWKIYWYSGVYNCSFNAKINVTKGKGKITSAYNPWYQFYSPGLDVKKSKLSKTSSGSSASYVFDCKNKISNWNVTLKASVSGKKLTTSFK
As to the kind of experiment: EMSA. The following applies: EMSA: 50 mM Tris pH 8.0, 300 mM NaCl, 10% glycerol, 50 ug/mL BSA, 1 ug yeast tRNA, 20 min room temperature; pull-down: 25 mM Tris pH 8.0, 150 mM KCl, 5 mM …. On the technique in general: In EMSA bound probe runs differently from free probe, usually more slowly.

Series [2] has as its target T1, HisZea (Lmo2686) (Listeria monocytogenes EGD-e). As to the kind of experiment: competition. The following applies: EMSA: 50 mM Tris pH 8.0, 300 mM NaCl, 10% glycerol, 50 ug/mL BSA, 1 ug yeast tRNA, 20 min room temperature; pull-down: 25 mM Tris pH 8.0, 150 mM KCl, 5 mM ….

Turning to “GGAGUAGAAAAGACCAAUGUGGGUUCUUUUUUAUUUUGUCUUAAUAACUCUAAACCACAGACAAAUAUAAAUUGGAAAUCAACGUAAUAAUCGUAUUUCCUAUUACAAUAAUCGAGAUAUUGUCACACCCUGAAAUAUAAUUGUAAUGCAAUUAACCUAUAGAUGAAAAACUGU [rli143]”, the binding entry in series [1] and in series [2] was “binds” each time.
In the case of “GGGUGUAAAAUGCAGCUUGAGUAAAAUGAAUGAGUGUGUUGUUUACCCCCAGAUUUAAUUCUGUGGUAUAUCGCGUAACCGGCGGCUGCUAUGGUGAUGGUAUAUGAAGGUAAACUGCCCUGAUUUGGUUUUACGUCACGUUUGUUUUAUAC [rli92]”, the binding result in series [1] and in series [2] was “binds” throughout.

Source of the values: article PMC6907008.
